# The DeepSol protein solubility set
# Experiment: soluble on expression in E. coli; label from the status in PepcDB or PDB records
row,Sequence,soluble on expression in E. coli
1,MDPKFQRVALSDGHFIPVLGFGTYAPEEVPKSKAMEATKIAIDAGFRHIDSAYFYKNEKEVGLAIRSKIADGTVKREDIFYTSKLWCTFHRPELVRPSLEDSLKNLQLDYVDLYIIHFPTALKPGVEIIPTDEHGKAIFDTVDICATWEAMEKCKDAGLAKSIGVSNFNRRQLEMILNKPGLKYKPVCNQVECHPYLNQGKLLEFCKSKGIVLVAYSALGSHREPEWVDQSAPVLLEDPLIGALAKKHQQTPALIALRYQLQRGIVVLAKSFTEKRIKENIQVFEFQLPSEDMKVIDSLNRNFRYVTADFAIGHPNYPFSDEY,soluble
2,MIPKNIHLIFLRKDEPFPELFEKCKQEIQVNHPDWNIRLYNKDDAQDILNQDLPEYIEAYNAFYHNVQKADFLRLALVYLYGGFYMDLDMLSLKPLDELRKYNLVLGEEKIVCQAEQEALNLRYRLRIANYMFGGIPKHPFLHRIMDEMAERATIILKSQQEILDITGPGLLTDTYWDNYGMYTDITLLRNTDKRCRQPYHNEISCHFGDYAAHLHAGTWRTGILEHHHHHH,soluble
3,PITLVKDILSKPPITAHSNISIMEAAKILIKHNINHLPIVDEHGKLVGIITSWDIAKALAQNKKTIEEIMTRNVITAHEDEPVDHVAIKMSKYNISGVPVVDDYRRVVGIVTSEDISRLFGGKK,soluble
4,MTNIFTPIEEALEAYKNGEFLIVMDDEDRENEGDLIMAAELITQEKMAFLVRYSSGYVCVPLSEERANQLELPPMLANRSDRHGTAYTITCDFAEGTTTGISAHDRALTTRSLANPNSKPQDFIKPGHILPLRAVPGLLKKRRGHTEAAVQLSTLAGLQPAGVICELVRDEDGLMMRLDDCIQFGKKHGIKIININQLVEYISK,soluble
5,GSFTMPGLVDSNPAPPESQEKKPLKPCCACPETKKARDACIIEKGEEHCGHLIEAHKECMRALGFKI,soluble
6,MAHHHHHHMFCNLNVCLAFLSSQYGKENMNARKPLAVSAGTNSRSGEGDWKSTMRSFREGVRCLGEENEALRTVRSDLDAISRKLTEKMNSLVEENGSFHKSMSTLLDDERRKVSIITDQNENLLHKLEELRKEYDDANKEISRLTDLVHTEKSRNNSVVGLFEKKLAEKEDEYQTELRLREQSLEKLKTQLEEKCSAYEAQLTDRDNLLQTERCQWKLQKEVYEKEIERLLSQVGKFAITQRSSSQQSTLGVDVAHAKPPLAPVPPPAPTDEEGDRAVVKKRRLEAVRQQRRLKENDKNDI,not soluble
7,MKRDRSDYEESMKHIDIVESLMMLSRSFVVKQIDVKQSTGSKTNHNNHFECKTCNRKFDSFQALGGHRASHKKPKLIVDQEQVKHRNKENDMHKCTICDQMFGTGQALGGHMRKHRTSMITEQSIVPSVVYSRPVFNRCSSSKEILDLNLTPLENDLVLIFGKNLVPQIDLKFVN,soluble
8,ATQGRLRRRPEGARVPSARRGRPRARWRAPQNNPEVDSIMAELKVEAPASVDWQKRCLTLETQLFRFRLQASKIRELLADKMQELEQRLLEAEQRAENAETQVGVMEEKVKLSNLKNVDSEGSLHRKYQELLKAIKGKDELISQLEAQLEKQKQMRAEEAKTVQEKAAKIKEWVTLKLAKLEMENQHLKSHNQRLVEQVGSLQDALEAIQIAPSRKLLVPPYGAAEQDSVPSEPGIQPMGQDSGSQAQGLKAAVLAPSPGALQSKDSVSEAASPLEDSSSSTVHSGETVEAKPLQPHLGRESPPHQPCMKLLTFRCSSASWGEGLVTAQRGMLPGTKTSAREGGPGSSLTLPKVRAPGTPRDSIQLAKRHHSQPQVGHGHFGRVVNIETEAFSALHPSGLPELESRARSREEPEKMEMEEPPPAGKNEERESPKALGAELEEVELGNKPPTPPLHQFSSWESRIYAVATSGMRLSDMSPRSNTACCASSPPALVSPGSFSGLVYKNVTVPVYTALKGRATQISNMPFMDESSGSDDDCSSQASFRISVPSSESRKTSGLGSPRAIKRGVSMSSLSSEGDYAIPPDACSLDSDYSEPEHKLQRTSSYSTDGLGLGGESLEKSGYLLKMGSQVKTWKRRWFVLRQGQIMYYKSPSDVIRKPQGQVDLNSRCQIVRGEGSQTFQLISEKKTYYLTADSPSLLEEWIRVLQSLLKVQATGPPALLRGGTKPTVKGWLTKVKHGHSKVVWCALVGKIFYYYRSHEDKRPLGCLPVRDAHIEEVDRSCDSDEDYEAGGTRRLLSSHCTLVIHPTEHSPTYLLIGTKHEKDTWLYHLTVAAGGSSAKVGTAYEQLIGKLMDGEGDPDSPLWRHPMLCYSKDGLYASLTTLPSEALQTEALKLFKSCQLFINVPVEAASVDYHVSLAQTALQVCLVHPELQSEIYCQLMKQTSCRPPQKYSLMQCWQLLALCAPLFLPQHHFLWYVKQQLQRHADPRSETGQYATYCQRAVERTLRTGEREARPSRMEVVSILLRNPFHHSLPFSIPVHFTNGTYHVVGFDGSSTVDEFLQRLNQEIGMRKPSHSGFALFTDDPSGRDLEHCLQGSVKICDAISKWEQAMKELHPGKSEGGTRVVKLMYKNRLYFRSQVKGETDRERLLLASQTSREIVAGRFPINKELALEMAALMAQVEYGDLEKPALPGPGGTSPAKAQHLLQQVLDRFHPRRYRHGAPAEQLRHLADMLTTKWATLQGCSPPECIRIYLTVARKWPFFGAKLFAAQPAQLSSKENALVWIAVNEDGVSILDHNTMQVHITYPYSSVTTFGGCRDDFMLVIRSIPDKSSGKSHIEKLIFRMAAPKIAEATFIMASYMNHCTTTVNPPTNPPGACQLWELDGRQFFSSVSCATKGPTLL,soluble
9,MAVDVPGIISPKTAEAASQLTDGIGGRAYLNSNGAILVTKIQLPSSTQVSNGTAYIYSGFSGGTESDIGFQYSDKYNVWKPYMKVGSKGQDQVQYLEGGSQFTNTKGFRPGSTVQLTIYKNLNGNTRATYWGTNNAGYNGRLISEISKTNVGSISKWKALATVATTGSRQSIKSNFSTSFTNITIDNKAITPVIDTQDFAKVTVSGNSVSLSVVKNLEHHHHHH,soluble
10,MADLERYLKRARGGRVVRTGFLDPEDQARLEEMARREGIRVAFFGGFPLAERKVAVLYPEEVPSVSDPVEVVLLDRPPPADLGEVLGEVEEVEEGVLAALLPEGRKALEAQGYRLLPPPEGALRPPRERVRTLVVPSLRVDAVGAKGFGVSRSYFAQGVKAGKVRLKGRPASPKDELAPGDLLFAEGLGTLRLLEVVGKTVRGNYKIKVEVER,soluble
11,SLSDPIIDMHLHASAADEQGPPPLAMCAPINPMPTWDQRQPWTTGLIAMFKAPKCADPIWSPTTDDEIRDKTLAIMAKRNIIGVVSGPYKRVMAWRALAPDRVLPGLMPTMSDLSKPKVLLDDFGKAKAAGQLAVIGELGFQYEGIAPNDPRLENLWAAAEAADVPVAIHIGPGPPGVAYLPGGGYRARMSSPLLLEDVLVKHPKLRINVMHAGYPMLDDTLALLYAHPQVYVDTGVIVYSQPRPAFYRYLQTLVDAGFGERVMFGSDQMVWPETIERSIAVIDEAPFLSAQQKRDILYNNAARFLRLDEATQAKHRAM,soluble
12,MAHHHHHHMAHVITRINAREILDSRGNPTVEVDLETNLGIFRAAVPSGASTGIYEALELRDNDKSRYLGKGVQKAIKNINEIIAPKLIGMNCTEQKKIDNLMVEELDGSKNEWGWSKSKLGANAILAISMAVCRAGAAANKVSLYKYLAQLAGKKSDQMVLPVPCLNVINGGSHAGNKLSFQEFMIVPVGAPSFKEALRYGAEVYHTLKSEIKKKYGIDATNVGDEGGFAPNILNANEALDLLVTAIKSAGYEGKVKIAMDVAASEFYNSENKTYDLDFKTPNNDKSLVKTGAQLVDLYIDLVKKYPIVSIEDPFDQDDWENYAKLTAAIGKDVQIVGDDLLVTNPTRITKALEKNACNALLLKVNQIGSITEAIEACLLSQKNNWGVMVSHRSGETEDVFIADLVVALRTGQIKTGAPCRSERNAKYNQLLRIEESLGNNAVFAGEKFRLQLN,not soluble
13,MNIQNIRTLLDTVAVPNTARTLGGEKAVRSVEQRSDGIHIALHFGFPVAHIASETADRIQEILMPETGDTHIHLSMDTEIGTHKVQPGVTTIKGVKNIIAVASGKGGVGKSTTTANLAAAMARMGARVGVLDADLYGPSQPTMLGVDDRKPDQKNQKLIPVESSDGIQVMSIGFLVDTDQAVVWRGPMVSQALQQLMFQSEWDEVDYLFIDLPPGTGDIQLTLSQRIPVTGSVIVTTPQDIALIDARKAVDMFRKVNIPILGVLENMSVHICTNCGHSEALFGTDGGKDFAARLNVPLLGQLPLSLPVREAMDGGTPAQLFDEHPAIARIYTDAAFQIALSIADKGKDFSSRFPKIVVE,not soluble
